Laboratory results: US20080044436A1, “Method for Screening and Compositions for Treating Cancers” (priority 2004, published 2008)

How the values were obtained:
Format in all cases: cell-based, human
p27 promoter = assay: Luciferase reporter assay in HeLa cells, p27 promoter; settings: 0.3 μg TReP-132 expression vector, dose-dependent
Experimental: The pGL2 and pGL3 reporter constructs (100 ng) were cotransfected with the indicated amounts of expression vectors and 10 ng of the control plasmid pRL.Null. The amount of plasmid was then normalized with the empty vector pcDNA3. After 12 hours of transfection, the medium was changed and cells were incubated for an additional 10 and 34 hours, respectively. During this period, T47-D cells were cultured in the presence and absence of progesterone (30 nM). The cells were then harvested and cell lysates (20 μl) were assayed for luciferase activity (Dual Luciférase™ Reporter Assay System, Promega, Madison, Wis., USA) in a Berthold LUMAT LB9501 luminometer. The transfections were performed in triplicate and each experiment was repeated at least three times.
TReP-132 activation of the p21, p27 and p16 cyclin kinase inhibitor promoters was studied by transfection of HeLa and T47-D cells. HeLa cells were seeded in 24-well plates at an initial density of 15,000 cells per well and transfected the next day with ExGen 500 (MBI Fermentas, Flamborough, Ontario, Canada) at a ratio of 4 μl of ExGen 500 per 0.5 μg DNA. T47-D cells were seeded at a density of 100,000 cells per well and transfected the next day with FuGENE 6 reagent (Roche Molecular Biochemicals, Laval, Canada), at a ratio of 3 μl of FuGENE per 1 μg of DNA. […]

HeLa cells = assay: Cell proliferation of HeLa Tet-off cells with inducible TReP-132 (HTO-GFP/TReP-132); settings: HTO-GFP/TReP-132 cells, Dox removed, after 4 days of culture; with Dox about 16 hours
Text: HeLa Tet-off cells expressing the tTA transactivator under the control of tetracycline or doxycycline (Dox) (Clontech Laboratories, Palo Alto, Calif.) were stably transfected with the pBI-EGFP-TReP-132 vector or the pBI-EGFP control vector. In order to select stably transfected cells, the pcDNA6 plasmid (Invitrogen, Ontario, CA) containing the blasticidin resistance gene was cotransfected at a ratio of 1:50. For these transfections, the cells were first seeded in 6-well plates at an initial density of 1×10^5 cells per well, incubated for 24 hours, then transfected with ExGen 500 (MBI Fermentas, Flamborough, Ontario, CA) at a ratio of 5 μl of ExGen 500 for a total of 1 μg of plasmid such as described hereinabove in the section “Colony formation assays”. 48 hours post-transfection, cells were selected for 2 weeks with blasticidin (Sigma-Aldrich CA Ltd.). Clearly visible colonies were then were picked and subcloned on 12-well plates to enable growth. […]
The cell proliferation rate was determined by the cellular DNA content using the fluorochorome DABA ([…]). […] Fluorescence was measured on a Perkin-Elmer LS-2B Filter Fluorimeter at an excitation wavelength of 400 nm and an emission wavelength of 508 nm. The DNA content was calculated from a standard curve of known quantities of salmon sperm DNA.

p16^INK4 gene = assay: RNase protection assay of CDKI transcription in HeLa cells, p16; settings: HeLa Tet-off cells, doxycycline removed

B1: TReP-132: Transcriptional Regulating Protein of 132 kDa, polypeptide comprising SEQ ID NO: 2; here expressed in cells from vectors (protein)
chain: MGDQQLYKTNHVAHGSENLFYQQPPLGVHSGLNHNYGNAVTGGGMDAPQASPISPHFPQDTRDGLGLPVGSKNLGQMDTSRQGGWGSHAGPGNHVQLRGNLANSNMMWGAPAQAEPTDGYQYTYSQASEIRTQKLTSGVLHKLDSFTQVFANQNLRIQVNNMAQVLHTQSAVMDGAPDSALRQLLSQKPMEPPAPAIPSRYQQVPQQPHPGFTGGLSKPALQVGQHPTQGHLYYDYQQPLAQVPVQGGQPLQAPQMLSQHMQQMQQHQYYPPQQQQQAGQQRISMQEIQTQPQQIRPSQPQPPPQQQQPQQLQLQQRQGSMQIPQYYQPQPMMQHLQEQQQQQMHLQPPSYHRDPHQYTPEQAHTVQLIPLGSMSQYYYQEPQQPYSHPLYQQSHLSQHQQREDSQLKTYSSDRQAQAMLSSHGDLGPPDTGMGDPASSDLTRVSSTLPHRPLLSPSGIHLNNMGPQHQQLSPSAMWPQMHLPDGRAQPGSPESSGQPKGAFGEQFDAKNKLTCSICLKEFKNLPALNGHMRSHGGMRASPNLKQEEGEKVLPPQPQPPLPPPPPPPPPPQLPPEAESLTPMVMPVSVPVKLLPPKPSSQGFTNSTVAAPSARDKPASSMSDDEMPVLEIPRKHQPSVPKAEEPLKTVQEKKKFRHRPEPLFIPPPPSYNPNPAASYSGATLYQSQLRSPRVLGDHLLLDPTHELPPYTPPPMLSPVRQGSGLFSNVLISGHGPGAHPQLPLTPLTPTPRVLLCRSNSIDGSNVTVTPGPGEQTVDVEPRINIGLRFQAEIPELQDISALAQDTHKATLVWKPWPELENHDLQQRVENLLNLCCSSALPGGGTNSEFALHSLFEAKGDVMVALEMLLLRKPVRLKCHPLANYHYAGSDKWTSLERKLFNKALATYSKDFIFVQKMVKSKTVAQCVEYYYTWKKIMRLGRKHRTRLAEIIDDCVTSEEEEELEEEEEEDPEEDRKSTKEEESEVPKSPEPPPVPVLAPTEGPPLQALGQPSGSFICEMPNCGAVFSSRQALNGHARIHGGTNQVTKARGAIPSGKQKPGGTQSGYCSVKSSPSHSTTSGETDPTTIFPCKECGKVFFKIKSRNAHMKTHRQQEEQQRQKAQKAAFAAEMAATIERTTGPVGAPGLLPLDQLSLIKPIKDVDILDDDVVQQLGGVMEEAEVVDTDLLLDDQDSVLLQGDAEL
- p27 promoter induction (p27 promoter): approximately 7 fold
- doubling time (HeLa cells): approximately 60 hours
- p16 gene transcription (p16^INK4 gene): induction
